Molecular target: T1, activated C1s (Homo sapiens, UniProt P09871)
T1 construct: purchased Complement Technology
T1 sequence (P09871 16-437 limits assumed): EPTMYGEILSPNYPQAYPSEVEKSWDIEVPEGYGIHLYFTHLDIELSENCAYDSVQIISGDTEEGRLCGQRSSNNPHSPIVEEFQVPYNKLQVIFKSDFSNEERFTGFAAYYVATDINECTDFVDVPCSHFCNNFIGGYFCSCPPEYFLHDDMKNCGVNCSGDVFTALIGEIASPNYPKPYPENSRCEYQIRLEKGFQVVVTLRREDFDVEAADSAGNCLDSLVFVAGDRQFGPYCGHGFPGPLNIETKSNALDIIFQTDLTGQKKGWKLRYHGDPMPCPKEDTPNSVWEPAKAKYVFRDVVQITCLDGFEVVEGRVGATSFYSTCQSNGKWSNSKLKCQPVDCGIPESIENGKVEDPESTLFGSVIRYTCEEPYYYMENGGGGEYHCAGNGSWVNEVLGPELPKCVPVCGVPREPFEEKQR
T1 sequence (P09871 438-688 limits assumed): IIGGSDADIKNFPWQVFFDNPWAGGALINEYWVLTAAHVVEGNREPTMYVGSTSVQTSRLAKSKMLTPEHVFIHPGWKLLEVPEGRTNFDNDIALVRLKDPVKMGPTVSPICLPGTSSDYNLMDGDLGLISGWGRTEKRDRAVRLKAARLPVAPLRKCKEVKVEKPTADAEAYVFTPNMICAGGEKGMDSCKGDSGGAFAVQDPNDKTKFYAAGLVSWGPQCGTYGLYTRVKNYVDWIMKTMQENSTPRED
Assay: Anti-interference experiment of fluorescence detection method for activated C1s
Type: biochemical
Conditions: for measured activated C1s enzymatic activity: n = 4
Description: • 1. Preparation of a buffer: 1) Binding Buffer: 0.1 M morpholinoethanesulfonic acid (MES, pH=5.0); • 2) Washing Buffer: TBS containing 0.05% Tween 20; • 3) Blocking Buffer: containing 0.05 M Tris, 1.0% BSA, and 0.05% Tween 20; • 4) Desired Buffer: Tris buffer containing 0.05% Tween 20 and BSA; and • 5) Tris Buffer: 0.05 M Tris, 0.15 M NaCl, and 0.2% (w/v) polyethylene glycol 8000. • 2. Preparation of immunomagnetic beads (C1s recombinant antibody-coupled magnetic beads) • (1) 10 mg of magnetic beads (Merck carboxyl magnetic beads, with a particle size of 1 μm) were washed 3 times with 1 mL of Binding Buffer, and vortexed to mix evenly. • (2) 20 μg of the C1s recombinant antibody obtained in Example 1 was added into every 1 mg of the magnetic beads, mixed well, and vortexed at a room temperature (25° C.) for 15 min. • (3) 50 μg of a coupling agent was added into every 1 mg of the magnetic beads, mixed well, and vortexed at a room temperature for 1 h. • (4) 1 mL of Binding Buffer was added and vortexed at a room temperature for 3 h. • (5) The magnetic beads were washed 4 times with 0.5 mL of Washing Buffer. • (6) The magnetic beads were resuspended with 1 mL of Desired Buffer to obtain C1s recombinant antibody-coupled magnetic beads with a concentration of 5 mg/mL, and stored at 4° C. until later use. • 3. Detection of the enzymatic activity of activated C1s • (1) 60 μL of the C1s recombinant antibody-coupled magnetic beads were stirred evenly, subjected to magnetic suction to remove a supernatant, added with 200 μL of PBS to mix well, subjected to the magnetic suction to remove a supernatant, and washed repeatedly 2 times. • (2) 10 μL of a sample to be tested or activated C1s standards with different concentrations were diluted to 100 μL with PBS, and mixed vertically with the C1s recombinant antibody-coupled magnetic beads at a room temperature for 10 min. The magnetic suction was performed to discard a supernatant. According to the enzymatic activity of the C1s standard determined in Example 4, the enzymatic activity conversion of the C1s standards with different concentrations is shown in Table 2.
• (3) The magnetic beads were repeatedly washed 3 times with 100 μL of PBS. • (4) The magnetic beads were resuspended with 90 μL of Tris buffer. • (5) 10 μL of substrate peptide 3 was added at a concentration of 1 μg/mL. • (6) The detection was performed with a microplate reader at 360/40 excitation light wave and 460/40 emission light wave, with a best reaction time of 1 h as a detection point, and the fluorescence signals were measured and recorded. The straight line fitting was performed by taking a C1s enzymatic activity as an abscissa and a fluorescence signal as an ordinate with a double logarithmic Log-Log mathematical model and using a least square method to plot a standard curve.
The possibility that bilirubin, chyle, and hemoglobin in clinical samples cause interference in the experiment was taken into account. Referring to the interference check A kit, high-, medium-, and low-concentration standards were added with different concentrations of bilirubin (with final concentrations of 0 mg/mL, 0.06 mg/mL, 0.14 mg/mL, and 0.20 mg/mL, respectively), chyle (with final concentrations of 0 FTU, 600 FTU, 1,400 FTU, and 2,000 FTU, respectively), and a hemoglobin solution (with final concentrations of 0 mg/mL, 1.5 mg/mL, 3.5 mg/mL, and 5 mg/mL, respectively). The measured high, medium and low average concentrations containing different interfering substances were subtracted from the corresponding average concentrations without interfering substances, and a difference and a percentage of the difference in an average concentration of a blank control without interfering substances were calculated.

“Hemoglobin: hemoglobin solution, interfering substance from interference check A kit” was tested, and the “measured activated C1s enzymatic activity” value (High value standard, hemoglobin 1.5 mg/mL) was 60.57 ± 3.66 pmol/min/µg, the “measured activated C1s enzymatic activity” value (High value standard, hemoglobin 3.5 mg/mL) was 56.23 ± 4.58 pmol/min/µg and the “measured activated C1s enzymatic activity” value (High value standard, hemoglobin 5 mg/mL) was 59.50 ± 5.13 pmol/min/µg. The “measured activated C1s enzymatic activity” value (Low value standard, hemoglobin 1.5 mg/mL) was 6.00 ± 0.59 pmol/min/µg, the “measured activated C1s enzymatic activity” value (Low value standard, hemoglobin 3.5 mg/mL) was 6.2 ± 0.56 pmol/min/µg and the “measured activated C1s enzymatic activity” value (Low value standard, hemoglobin 5 mg/mL) was 6.37 ± 0.51 pmol/min/µg. The “measured activated C1s enzymatic activity” value (Medium value standard, hemoglobin 1.5 mg/mL) was 29.47 ± 1.15 pmol/min/µg, the “measured activated C1s enzymatic activity” value (Medium value standard, hemoglobin 3.5 mg/mL) was 28.16 ± 2.68 pmol/min/µg and the “measured activated C1s enzymatic activity” value (Medium value standard, hemoglobin 5 mg/mL) was 28.23 ± 1.45 pmol/min/µg. The “interference with the detection method” value (hemoglobin 5 mg/mL) was “not interfered”.
